Source: publication PMC3859580, “The PS1 Hairpin of Mcm3 Is Essential for Viability and for DNA Unwinding In Vitro”

Biological target: Mcm2-7 complex (wild type) (Saccharomyces cerevisiae, UniProt P29469;P24279;P30665;P29496;P53091;P38132 1-868;1-971;1-933;1-775;1-1017;1-845)
Assay: EMSA; 5 mM ATP, 10 mM Mg acetate; 50-400 nM complex, 1 nM DNA; shifted band diminished by anti-Mcm7; EMSA: 20 mM Tris-HCl pH 7.5, 10 mM Mg acetate, 100 uM EDTA, 5 mM DTT, 5 mM ATP, 37 C, 10 min; 5% native TBE gel with 5% glycerol, 0.1% NP-40, 10 mM Mg acetate
Conditions: protein: recombinant; copies: 1;1;1;1;1;1; label: 5'-32P; single strand

B1: 90-base ssDNA oligonucleotide with (T)60 tail (ssDNA)
DNA: ATGTCCTAGCAAGCCAGAATTCGGCAGCGTCTTTTTTTTTTTTTTTTTTTTTTTTTTTTTTTTTTTTTTTTTTTTTTTTTTTTTTTTTTTT
  binding result: binds
